# From article PMC9294600
# Molecular target: HA-tagged p62 (SQSTM1) (UniProt Q13501)
# Experiment: coimmunoprecipitation and immunoblot, quantified
# Settings: 293T cells; 0.2 μM Baf A1 for 6 h; parent: est. 1.0; read off a plot
row,Substance,ratio to parent
1,Flag-tagged dengue virus (DENV) capsid protein K17R,1.1
2,Flag-tagged dengue virus (DENV) capsid protein K6R,0.81
3,Flag-tagged dengue virus (DENV) capsid protein K76R,0.22
